Residue numbers refer to the chain shown, from its start. Names and notes keep the numbering of the source. Blank lines part the entries; values can stand above or below the binder they belong to.
Biological target: plasma purified human complement protein C3 (human) (UniProt P01024)
Assay: cell-based or functional assay

Chain of plasma purified human complement protein C3 (human) (P01024 23-667, chain 1 of 2): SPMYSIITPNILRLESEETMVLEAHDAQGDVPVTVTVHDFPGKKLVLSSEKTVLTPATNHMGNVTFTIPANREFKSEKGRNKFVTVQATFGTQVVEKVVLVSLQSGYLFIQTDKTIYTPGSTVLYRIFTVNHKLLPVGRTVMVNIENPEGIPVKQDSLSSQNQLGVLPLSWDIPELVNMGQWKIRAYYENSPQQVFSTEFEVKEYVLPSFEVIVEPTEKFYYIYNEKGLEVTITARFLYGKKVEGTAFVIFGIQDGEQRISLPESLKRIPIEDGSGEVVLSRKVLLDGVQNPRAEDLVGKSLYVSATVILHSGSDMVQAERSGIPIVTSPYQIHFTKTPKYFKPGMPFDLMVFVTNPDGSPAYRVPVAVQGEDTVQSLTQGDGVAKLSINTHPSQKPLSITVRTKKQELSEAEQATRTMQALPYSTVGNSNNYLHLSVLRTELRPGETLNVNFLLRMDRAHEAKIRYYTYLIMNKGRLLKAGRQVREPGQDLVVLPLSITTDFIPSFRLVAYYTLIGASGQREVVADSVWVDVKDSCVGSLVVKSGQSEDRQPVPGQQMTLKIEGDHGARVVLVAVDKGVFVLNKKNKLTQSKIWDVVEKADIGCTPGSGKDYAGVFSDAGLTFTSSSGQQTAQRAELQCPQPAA
Chain of plasma purified human complement protein C3 (human) (P01024 672-1663, chain 2 of 2): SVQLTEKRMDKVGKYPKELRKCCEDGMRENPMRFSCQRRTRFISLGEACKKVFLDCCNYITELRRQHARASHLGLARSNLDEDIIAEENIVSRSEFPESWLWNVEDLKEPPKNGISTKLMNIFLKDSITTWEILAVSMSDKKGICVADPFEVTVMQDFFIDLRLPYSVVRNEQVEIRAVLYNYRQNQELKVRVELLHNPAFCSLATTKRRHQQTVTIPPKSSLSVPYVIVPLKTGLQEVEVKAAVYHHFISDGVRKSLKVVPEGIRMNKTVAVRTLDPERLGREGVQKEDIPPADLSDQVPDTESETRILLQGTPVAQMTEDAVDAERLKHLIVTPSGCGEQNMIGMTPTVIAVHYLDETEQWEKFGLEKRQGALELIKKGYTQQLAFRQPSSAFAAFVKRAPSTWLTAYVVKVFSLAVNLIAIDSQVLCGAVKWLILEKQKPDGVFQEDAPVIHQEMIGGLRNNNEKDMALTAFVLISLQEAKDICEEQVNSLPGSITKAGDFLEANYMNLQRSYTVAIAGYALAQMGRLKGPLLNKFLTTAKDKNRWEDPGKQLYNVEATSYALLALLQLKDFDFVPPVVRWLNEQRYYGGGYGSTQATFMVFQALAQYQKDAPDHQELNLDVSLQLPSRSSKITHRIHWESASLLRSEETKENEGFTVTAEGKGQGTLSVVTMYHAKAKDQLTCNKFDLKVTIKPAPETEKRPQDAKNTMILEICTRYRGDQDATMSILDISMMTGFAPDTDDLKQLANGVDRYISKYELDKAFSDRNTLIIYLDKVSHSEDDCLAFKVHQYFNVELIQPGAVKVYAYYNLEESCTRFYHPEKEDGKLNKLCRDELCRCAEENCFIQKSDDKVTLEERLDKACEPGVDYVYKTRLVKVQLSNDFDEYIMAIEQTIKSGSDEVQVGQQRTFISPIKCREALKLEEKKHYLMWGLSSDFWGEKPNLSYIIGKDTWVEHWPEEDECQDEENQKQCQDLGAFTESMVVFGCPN

B1: MTSP-1 Q38H/I41S/D60bT/F60eH/Y60gF/ins97aV/F97D/T98P/F99L/C122S/H143R/G151N/Q175L/Q192S (enzyme)
chain: VVGGTDADEGEWPWQVSLHALGHGHSCGASLISPNWLVSAAHCYIDTRGHRFSDPTQWTAFLGLHDQSQRSAPGVQERRLKRIISHPFFNDDVPLDYDIALLELEKPAEYSSMVRPISLPDASHVFPAGKAIWVTGWGRTQYGGTNALILQKGEIRVINQTTCENLLPQLITPRMMCVGFLSGGVDSCSGDSGGPLSSVEADGRIFQAGVVSWGDGCAQRNKPGVYTRLPLFRDWIKENTGV
EC50 of hC3 cleavage: 21 nM

B2: MTSP-1 Q38H/I41S/D60bT/F60eT/Y60gW/ins97aV/F97D/T98P/F99L/C122S/G151H/Q175L/Q192V (enzyme)
chain: B1 chain with H50T, F52W, R139H, N146H, S189V
EC50 of hC3 cleavage: 5.52 nM

B5: MTSP-1 Q38H/I41S/D60bS/ins97aV/F97D/T98P/F99L/C122S/I136V/Q192G/D217V (enzyme)
chain: B1 chain with T47S, H50F, F52Y, I132V, R139H, N146G, L170Q, S189G, D215V
EC50 of hC3 cleavage: 7.05 nM

B6: MTSP-1 Q38H/I41S/D60bF/F60eT/ins97aV/F97D/T98P/F99L/C122S/H143Q/G151N/Q175L/Q192G (enzyme)
chain: B1 chain with T47F, H50T, F52Y, R139Q, S189G
EC50 of hC3 cleavage: 3.07 nM

B8: MTSP-1 Q38H/I41S/L52M/D60bH/D96V/ins97aV/F97D/T98P/F99L/C122S/T150A/Q192G/Q209L/D217T (enzyme)
chain: VVGGTDADEGEWPWQVSLHALGHGHSCGASLISPNWMVSAAHCYIDHRGFRYSDPTQWTAFLGLHDQSQRSAPGVQERRLKRIISHPFFNVDVPLDYDIALLELEKPAEYSSMVRPISLPDASHVFPAGKAIWVTGWGHTQYGGAGALILQKGEIRVINQTTCENLLPQQITPRMMCVGFLSGGVDSCGGDSGGPLSSVEADGRIFLAGVVSWGTGCAQRNKPGVYTRLPLFRDWIKENTGV
EC50 of hC3 cleavage: 16.9 nM

B9: MTSP-1 Q38H/I41S/D60bA/Y60gG/ins97aV/F97D/T98P/F99L/C122S/H143T/G151N/Q175L/Q192A (enzyme)
chain: B1 chain with T47A, H50F, F52G, R139T, S189A
EC50 of hC3 cleavage: 4.22 nM

B10: MTSP-1 Q38H/I41S/D60bG/ins97aV/F97D/T98P/F99L/M117T/C122S/N164D/Q192G/D217E (enzyme)
chain: B8 chain with M37L, H47G, V91D, M113T, A145T, N159D, L207Q, T215E
EC50 of hC3 cleavage: 10.3 nM

B11: MTSP-1 Q38H/I41S/D60bT/F93S/ins97aV/F97D/T98P/F99L/C122S/I136L/Q192G/D217A (enzyme)
chain: B8 chain with M37L, H47T, F88S, V91D, I132L, A145T, L207Q, T215A
EC50 of hC3 cleavage: 37 nM

B12: MTSP-1 I41S/D60bH/ins97aV/F97D/T98P/F99L/C122S/I136V/Q192G/D217N (enzyme)
chain: B8 chain with H23Q, M37L, V91D, I132V, A145T, L207Q, T215N
EC50 of hC3 cleavage: 20.6 nM

B14: MTSP-1 Q38H/I41S/D60bT/F60eS/Y60gW/ins97aV/F97D/T98P/F99L/C122S/G151N/Q175L/Q192D (enzyme)
chain: B1 chain with H50S, F52W, R139H, S189D
EC50 of hC3 cleavage: 15.4 nM

B15: MTSP-1 I41S/D60bS/D96V/ins97aV/F97D/T98P/F99L/C122S/Q192G/F208L/D217N (enzyme)
chain: B8 chain with H23Q, M37L, H47S, A145T, F206L, L207Q, T215N
EC50 of hC3 cleavage: 52.4 nM

B17: MTSP-1 Q38H/I41S/D60bT/S90T/F97D/ins97aV/T98P/F99L/C122S/S127N/I136F/Q192G/D217Q (enzyme)
chain: B8 chain with M37L, H47T, S85T, V91D, S123N, I132F, A145T, L207Q, T215Q
EC50 of hC3 cleavage: 21.2 nM

B18: MTSP-1 Q38H/I41S/D60bT/F60eS/Y60gW/F97D/F99L/C122S/G151H/Q175L/Q192D (enzyme)
chain: VVGGTDADEGEWPWQVSLHALGHGHSCGASLISPNWLVSAAHCYIDTRGSRWSDPTQWTAFLGLHDQSQRSAPGVQERRLKRIISHPFFNDDTLDYDIALLELEKPAEYSSMVRPISLPDASHVFPAGKAIWVTGWGHTQYGGTHALILQKGEIRVINQTTCENLLPQLITPRMMCVGFLSGGVDSCDGDSGGPLSSVEADGRIFQAGVVSWGDGCAQRNKPGVYTRLPLFRDWIKENTGV
EC50 of hC3 cleavage: 5.53 nM

The remaining lines, values ahead:

EC50 hC3 cleavage: 26.3 nM
B3: MTSP-1 protease domain Q38H/I41S/D60bS/F60eQ/ins97aV/F97D/T98P/F99L/C122S/H143A/G151N/Q175L/Q192G (enzyme)
chain: B1 chain with T47S, H50Q, F52Y, R139A, S189G

EC50 of hC3 cleavage: 11.8 nM
B4: MTSP-1 Q38K/I41S/D60bV/ins97aV/F97D/T98P/F99L/M117T/C122S/Q145E/Q175L/Q192G (enzyme)
chain: B1 chain with H23K, T47V, H50F, F52Y, M113T, R139H, Q141E, N146G, S189G

EC50 hC3 cleavage: 8.5 nM
B7: MTSP-1 protease domain Q38H/I41S/D60bQ/F60eQ/F97D/ins97aV/T98P/F99L/C122S/H143Q/G151Q/Q175L/Q192G (enzyme)
chain: B1 chain with T47Q, H50Q, F52Y, R139Q, N146Q, S189G

EC50 hC3 cleavage: 6.69 nM
B13: MTSP-1 protease domain Q38H/I41S/D60bT/F60eT/ins97aV/F97D/T98P/F99L/C122S/H143Q/G151Q/Q175L/Q192G (enzyme)
chain: B1 chain with H50T, F52Y, R139Q, N146Q, S189G

EC50 of hC3 cleavage: 19.5 nM
B16: MTSP-1 Q38K/I41T/D60bY/ins97aV/F97D/T98P/F99L/C122S/I136T/Q192G/F208V/D217R (enzyme)
chain: B8 chain with H23K, S26T, M37L, H47Y, V91D, I132T, A145T, F206V, L207Q, T215R

EC50 hC3 cleavage: 2.52 nM
B19: MTSP-1 protease domain Q38H/I41A/D60bV/F60eR/Y60gW/D96I/F97N/T98G/F99L/C122S/G151H/Q175L/Q192D (enzyme)
chain: B18 chain with S26A, T47V, S50R, D91I, D92N, T93G

EC50 hC3 cleavage: 7.04 nM
B20: MTSP-1 protease domain Q38H/I41A/D60bV/F60eR/Y60gW/F97D/F99L/C122S/G151N/Q175L/Q192D (enzyme)
chain: B18 chain with S26A, T47V, S50R, H145N

EC50 hC3 cleavage: 3.04 nM
B21: MTSP-1 protease domain Q38H/I41S/D60bT/F60eS/Y60gW/D96I/F97N/T98G/F99L/C122S/G151N/Q175L/Q192D (enzyme)
chain: B18 chain with D91I, D92N, T93G, H145N

EC50 hC3 cleavage: 3.72 nM
B22: MTSP-1 protease domain Q38H/I41A/D60bV/F60eR/Y60gW/F97D/F99L/C122S/G151H/Q175L/Q192D (enzyme)
chain: B18 chain with S26A, T47V, S50R

EC50 hC3 cleavage: 4.9 nM
B23: MTSP-1 protease domain Q38H/I41S/D60bT/F60eS/Y60gW/F97D/F99L/C122S/G151N/Q175L/Q192D (enzyme)
chain: B18 chain with H145N
